Measurements as given in publication PMC3830201 (2013).

Molecular target: F-actin assembled from rabbit skeletal muscle G-actin (Oryctolagus cuniculus (Rabbit), UniProt P68135)
Test: F-actin co-sedimentation

B1: GST-Swiprosin-1 fusion protein (wild type) (protein)
chain: MATDELATKLSRRLQMEGEGGGETPEQPGLNGAAAAAAGAPDEAAEALGSADCELSAKLLRRADLNQGIGEPQSPSRRVFNPYTEFKEFSRKQIKDMEKMFKQYDAGRDGFIDLMELKLMMEKLGAPQTHLGLKNMIKEVDEDFDSKLSFREFLLIFRKAAAGELQEDSGLCVLARLSEIDVSSEGVKGAKSFFEAKVQAINVSSRFEEEIKAEQEERKKQAEEMKQRKAAFKELQSTFK
B1: binds.
